Article PMC7367873, “Dissecting the sequence determinants for dephosphorylation by the catalytic subunits of phosphatases PP1 and PP2A” (Nature Communications, 2020)
Each block holds one molecule with its values, some of them ahead of it.

Columns and labels:
[1] = tested on: GFP-14-3-3β and its binding proteins; assay: GFP-14-3-3β co-IP with LC-MS/MS label-free quantification, untreated versus PP1c-treated; parameters: species or system human; conditions: PP1 vs untreated
GFP-14-3-3β = GFP-14-3-3β co-IP with LC-MS/MS, untreated GFP-14-3-3β versus GFP control (14-3-3 interactome); assay type: binding, human; conditions: untreated vs GFP
[2] = LFQ intensities, 3 replicates each

Difference (log2), PP1 vs untreated ([1]; label-free quantification): 0.7397 log2
B1: MISP (protein, UniProt Q8IVT2 1-679, looked up)
Mitotic interactor and …: MDRVTRYPILGIPQAHRGTGLVLDGDTSYTYHLVCMGPEASGWGQDEPQTWPTDHRAQQGVQRQGVSYSVHAYTGQPSPRGLHSENREDEGWQVYRLGARDAHQGRPTWALRPEDGEDKEMKTYRLDAGDADPRRLCDLERERWAVIQGQAVRKSSTVATLQGTPDHGDPRTPGPPRSTPLEENVVDREQIDFLAARQQFLSLEQANKGAPHSSPARGTPAGTTPGASQAPKAFNKPHLANGHVVPIKPQVKGVVREENKVRAVPTWASVQVVDDPGSLASVESPGTPKETPIEREIRLAQEREADLREQRGLRQATDHQELVEIPTRPLLTKLSLITAPRRERGRPSLYVQRDIVQETQREEDHRREGLHVGRASTPDWVSEGPQPGLRRALSSDSILSPAPDARAADPAPEVRKVNRIPPDAYQPYLSPGTPQLEFSAFGAFGKPSSLSTAEAKAATSPKATMSPRHLSESSGKPLSTKQEASKPPRGCPQANRGVVRWEYFRLRPLRFRAPDEPQQAQVPHVWGWEVAGAPALRLQKSQSSDLLERERESVLRREQEVAEERRNALFPEVFSPTPDENSDQNSRSSSQASGITGSYSVSESPFFSPIHLHSNVAWTVEDPVDSAPPGQRKKEQWYAGINPSDGINSEVLEAIRVTRHKNAMAERWESRIYASEEDD
Difference (log2), untreated vs GFP (GFP-14-3-3β; label-free quantification): -0.2245 log2

Difference (log2), PP1 vs untreated [1, 2]: 0.7127 log2
B2: PNPLA6 (protein, UniProt Q8IY17 1-1375, looked up)
Patatin-like phospholipase …: MEAPLQTGMMGTSSHGLATNSSGAKVAERDGFQDVLAPGEGSAGRICGAQPVPFVPQVLGVMIGAGVAVVVTAVLILLVVRRLRVPKTPAPDGPRYRFRKRDKVLFYGRKIMRKVSQSTSSLVDTSVSATSRPRMRKKLKMLNIAKKILRIQKETPTLQRKEPPPAVLEADLTEGDLANSHLPSEVLYMLKNVRVLGHFEKPLFLELCRHMVFQRLGQGDYVFRPGQPDASIYVVQDGLLELCLPGPDGKECVVKEVVPGDSVNSLLSILDVITGHQHPQRTVSARAARDSTVLRLPVEAFSAVFTKYPESLVRVVQIIMVRLQRVTFLALHNYLGLTNELFSHEIQPLRLFPSPGLPTRTSPVRGSKRMVSTSATDEPRETPGRPPDPTGAPLPGPTGDPVKPTSLETPSAPLLSRCVSMPGDISGLQGGPRSDFDMAYERGRISVSLQEEASGGSLAAPARTPTQEPREQPAGACEYSYCEDESATGGCPFGPYQGRQTSSIFEAAKQELAKLMRIEDPSLLNSRVLLHHAKAGTIIARQGDQDVSLHFVLWGCLHVYQRMIDKAEDVCLFVAQPGELVGQLAVLTGEPLIFTLRAQRDCTFLRISKSDFYEIMRAQPSVVLSAAHTVAARMSPFVRQMDFAIDWTAVEAGRALYRQGDRSDCTYIVLNGRLRSVIQRGSGKKELVGEYGRGDLIGVVEALTRQPRATTVHAVRDTELAKLPEGTLGHIKRRYPQVVTRLIHLLSQKILGNLQQLQGPFPAGSGLGVPPHSELTNPASNLATVAILPVCAEVPMVAFTLELQHALQAIGPTLLLNSDIIRARLGASALDSIQEFRLSGWLAQQEDAHRIVLYQTDASLTPWTVRCLRQADCILIVGLGDQEPTLGQLEQMLENTAVRALKQLVLLHREEGAGPTRTVEWLNMRSWCSGHLHLRCPRRLFSRRSPAKLHELYEKVFSRRADRHSDFSRLARVLTGNTIALVLGGGGARGCSHIGVLKALEEAGVPVDLVGGTSIGSFIGALYAEERSASRTKQRAREWAKSMTSVLEPVLDLTYPVTSMFTGSAFNRSIHRVFQDKQIEDLWLPYFNVTTDITASAMRVHKDGSLWRYVRASMTLSGYLPPLCDPKDGHLLMDGGYINNLPADIARSMGAKTVIAIDVGSQDETDLSTYGDSLSGWWLLWKRLNPWADKVKVPDMAEIQSRLAYVSCVRQLEVVKSSSYCEYLRPPIDCFKTMDFGKFDQIYDVGYQYGKAVFGGWSRGNVIEKMLTDRRSTDLNESRRADVLAFPSSGFTDLAEIVSRIEPPTSYVSDGCADGEESDCLTEYEEDAGPDCSRDEGGSPEGASPSTASEMEEEKSILRQRRCLPQEPPGSATDA
Difference (log2), untreated vs GFP (GFP-14-3-3β; [2]): 1.692 log2

Difference (log2), PP1 vs untreated [1, 2]: 0.7375 log2
B6: UBAP2L (protein, UniProt Q14157 1-1087, looked up)
Ubiquitin-associated protein …: MMTSVGTNRARGNWEQPQNQNQTQHKQRPQATAEQIRLAQMISDHNDADFEEKVKQLIDITGKNQDECVIALHDCNGDVNRAINVLLEGNPDTHSWEMVGKKKGVSGQKDGGQTESNEEGKENRDRDRDYSRRRGGPPRRGRGASRGREFRGQENGLDGTKSGGPSGRGTERGRRGRGRGRGGSGRRGGRFSAQGMGTFNPADYAEPANTDDNYGNSSGNTWNNTGHFEPDDGTSAWRTATEEWGTEDWNEDLSETKIFTASNVSSVPLPAENVTITAGQRIDLAVLLGKTPSTMENDSSNLDPSQAPSLAQPLVFSNSKQTAISQPASGNTFSHHSMVSMLGKGFGDVGEAKGGSTTGSQFLEQFKTAQALAQLAAQHSQSGSTTTSSWDMGSTTQSPSLVQYDLKNPSDSAVHSPFTKRQAFTPSSTMMEVFLQEKSPAVATSTAAPPPPSSPLPSKSTSAPQMSPGSSDNQSSSPQPAQQKLKQQKKKASLTSKIPALAVEMPGSADISGLNLQFGALQFGSEPVLSDYESTPTTSASSSQAPSSLYTSTASESSSTISSNQSQESGYQSGPIQSTTYTSQNNAQGPLYEQRSTQTRRYPSSISSSPQKDLTQAKNGFSSVQATQLQTTQSVEGATGSAVKSDSPSTSSIPPLNETVSAASLLTTTNQHSSSLGGLSHSEEIPNTTTTQHSSTLSTQQNTLSSSTSSGRTSTSTLLHTSVESEANLHSSSSTFSTTSSTVSAPPPVVSVSSSLNSGSSLGLSLGSNSTVTASTRSSVATTSGKAPPNLPPGVPPLLPNPYIMAPGLLHAYPPQVYGYDDLQMLQTRFPLDYYSIPFPTPTTPLTGRDGSLASNPYSGDLTKFGRGDASSPAPATTLAQPQQNQTQTHHTTQQTFLNPALPPGYSYTSLPYYTGVPGLPSTFQYGPAVFPVAPTSSKQHGVNVSVNASATPFQQPSGYGSHGYNTGVSVTSSNTGVPDISGSVYSKTQQSFEKQGFHSGTPAASFNLPSALGSGGPINPATAAAYPPAPFMHILTPHQQPHSQILHHHLQQDGQTGSGQRSQTSSIPQKPQTNKSAYNSYSWGAN
Difference (log2), untreated vs GFP (GFP-14-3-3β; [2]): -0.6949 log2

Further lines, the molecule ahead of its results:

B3: ATXN2L (protein, UniProt Q8WWM7 1-1075, looked up)
Ataxin-2-like protein: MLKPQPLQQPSQPQQPPPTQQAVARRPPGGTSPPNGGLPGPLATSAAPPGPPAAASPCLGPVAAAGSGLRRGAEGILAPQPPPPQQHQERPGAAAIGSARGQSTGKGPPQSPVFEGVYNNSRMLHFLTAVVGSTCDVKVKNGTTYEGIFKTLSSKFELAVDAVHRKASEPAGGPRREDIVDTMVFKPSDVMLVHFRNVDFNYATKDKFTDSAIAMNSKVNGEHKEKVLQRWEGGDSNSDDYDLESDMSNGWDPNEMFKFNEENYGVKTTYDSSLSSYTVPLEKDNSEEFRQRELRAAQLAREIESSPQYRLRIAMENDDGRTEEEKHSAVQRQGSGRESPSLASREGKYIPLPQRVREGPRGGVRCSSSRGGRPGLSSLPPRGPHHLDNSSPGPGSEARGINGGPSRMSPKAQRPLRGAKTLSSPSNRPSGETSVPPPPAVGRMYPPRSPKSAAPAPISASCPEPPIGSAVPTSSASIPVTSSVSDPGVGSISPASPKISLAPTDVKELSTKEPGRTLEPQELARIAGKVPGLQNEQKRFQLEELRKFGAQFKLQPSSSPENSLDPFPPRILKEEPKGKEKEVDGLLTSEPMGSPVSSKTESVSDKEDKPPLAPSGGTEGPEQPPPPCPSQTGSPPVGLIKGEDKDEGPVAEQVKKSTLNPNAKEFNPTKPLLSVNKSTSTPTSPGPRTHSTPSIPVLTAGQSGLYSPQYISYIPQIHMGPAVQAPQMYPYPVSNSVPGQQGKYRGAKGSLPPQRSDQHQPASAPPMMQAAAAAGPPLVAATPYSSYIPYNPQQFPGQPAMMQPMAHYPSQPVFAPMLQSNPRMLTSGSHPQAIVSSSTPQYPSAEQPTPQALYATVHQSYPHHATQLHAHQPQPATTPTGSQPQSQHAAPSPVQHQAGQAPHLGSGQPQQNLYHPGALTGTPPSLPPGPSAQSPQSSFPQPAAVYAIHHQQLPHGFTNMAHVTQAHVQTGITAAPPPHPGAPHPPQVMLLHPPQSHGGPPQGAVPQSGVPALSASTPSPYPYIGHPQGEQPGQAPGFPGGADDRIREFSLAGGIWHGRAEGLQVGQDARVLGGE
Difference (log2), PP1 vs untreated ([1]; label-free quantification): 0.7492 log2
Difference (log2), untreated vs GFP (GFP-14-3-3β; label-free quantification): 0.1548 log2

B4: ASPH (protein, UniProt Q12797 1-758, looked up)
Aspartyl/asparaginyl …: MAQRKNAKSSGNSSSSGSGSGSTSAGSSSPGARRETKHGGHKNGRKGGLSGTSFFTWFMVIALLGVWTSVAVVWFDLVDYEEVLGKLGIYDADGDGDFDVDDAKVLLGLKERSTSEPAVPPEEAEPHTEPEEQVPVEAEPQNIEDEAKEQIQSLLHEMVHAEHVEGEDLQQEDGPTGEPQQEDDEFLMATDVDDRFETLEPEVSHEETEHSYHVEETVSQDCNQDMEEMMSEQENPDSSEPVVEDERLHHDTDDVTYQVYEEQAVYEPLENEGIEITEVTAPPEDNPVEDSQVIVEEVSIFPVEEQQEVPPETNRKTDDPEQKAKVKKKKPKLLNKFDKTIKAELDAAEKLRKRGKIEEAVNAFKELVRKYPQSPRARYGKAQCEDDLAEKRRSNEVLRGAIETYQEVASLPDVPADLLKLSLKRRSDRQQFLGHMRGSLLTLQRLVQLFPNDTSLKNDLGVGYLLIGDNDNAKKVYEEVLSVTPNDGFAKVHYGFILKAQNKIAESIPYLKEGIESGDPGTDDGRFYFHLGDAMQRVGNKEAYKWYELGHKRGHFASVWQRSLYNVNGLKAQPWWTPKETGYTELVKSLERNWKLIRDEGLAVMDKAKGLFLPEDENLREKGDWSQFTLWQQGRRNENACKGAPKTCTLLEKFPETTGCRRGQIKYSIMHPGTHVWPHTGPTNCRLRMHLGLVIPKEGCKIRCANETKTWEEGKVLIFDDSFEHEVWQDASSFRLIFIVDVWHPELTPQQRRSLPAI
Difference (log2), PP1 vs untreated ([1]; label-free quantification): 0.7413 log2
Difference (log2), untreated vs GFP (GFP-14-3-3β; label-free quantification): 0.9544 log2

B5: C4BPA (protein, UniProt P04003 49-597, looked up)
C4b-binding protein alpha …: NCGPPPTLSFAAPMDITLTETRFKTGTTLKYTCLPGYVRSHSTQTLTCNSDGEWVYNTFCIYKRCRHPGELRNGQVEIKTDLSFGSQIEFSCSEGFFLIGSTTSRCEVQDRGVGWSHPLPQCEIVKCKPPPDIRNGRHSGEENFYAYGFSVTYSCDPRFSLLGHASISCTVENETIGVWRPSPPTCEKITCRKPDVSHGEMVSGFGPIYNYKDTIVFKCQKGFVLRGSSVIHCDADSKWNPSPPACEPNSCINLPDIPHASWETYPRPTKEDVYVVGTVLRYRCHPGYKPTTDEPTTVICQKNLRWTPYQGCEALCCPEPKLNNGEITQHRKSRPANHCVYFYGDEISFSCHETSRFSAICQGDGTWSPRTPSCGDICNFPPKIAHGHYKQSSSYSFFKEEIIYECDKGYILVGQAKLSCSYSHWSAPAPQCKALCRKPELVNGRLSVDKDQYVEPENVTIQCDSGYGVVGPQSITCSGNRTWYPEVPKCEWETPEGCEQVLTGKRLMQCLPNPEDVKMALEVYKLSLEIEQLELQRDSARQSTLDKEL
Difference (log2), PP1 vs untreated ([1]; label-free quantification): 0.7487 log2
Difference (log2), untreated vs GFP (GFP-14-3-3β; label-free quantification): -1.682 log2
